From article PMC7067828, “FAM111A protects replication forks from protein obstacles via its trypsin-like domain”

Assays:
Strep-FAM111A = Strep-FAM111A (human, UniProt Q96PZ2 1-611); assay: fluorescence polarization; EMSA: 25 mM Tris-HCl pH 7.5, 5 mM MgCl2, 10% glycerol, 20 ng/ul BSA, 1 mM DTT, 0.7 pmol DNA in 10 ul, on ice 1 h; FP: 10 mM HEPES-NaOH pH 7.5, 150 mM NaCl, 10 nM DNA; conditions: protein: recombinant; tags: N-terminal tandem Strep; label: 5' 6-FAM; single strand
MBP-FAM111A 176-282 = MBP-FAM111A 176-282 (human, UniProt Q96PZ2 176-282); assay: EMSA; 5 mM Mg2+; EMSA: 25 mM Tris-HCl pH 7.5, 5 mM MgCl2, 10% glycerol, 20 ng/ul BSA, 1 mM DTT, 0.7 pmol DNA in 10 ul, on ice 1 h; FP: 10 mM HEPES-NaOH pH 7.5, 150 mM NaCl, 10 nM DNA; conditions: protein: recombinant; tags: N-terminal MBP; label: 5' IRDye700; single strand
Sequence of MBP-FAM111A 176-282 (Q96PZ2 176-282): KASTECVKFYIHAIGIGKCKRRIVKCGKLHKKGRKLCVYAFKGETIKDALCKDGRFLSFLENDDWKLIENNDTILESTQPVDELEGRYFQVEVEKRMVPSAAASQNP

MBP-FAM111A 1-282 = MBP-FAM111A 1-282 (human, UniProt Q96PZ2 1-282); assay: as above; conditions: protein: recombinant; tags: N-terminal MBP; label: 5' IRDye700; single strand
Sequence of MBP-FAM111A 1-282 (Q96PZ2 1-282): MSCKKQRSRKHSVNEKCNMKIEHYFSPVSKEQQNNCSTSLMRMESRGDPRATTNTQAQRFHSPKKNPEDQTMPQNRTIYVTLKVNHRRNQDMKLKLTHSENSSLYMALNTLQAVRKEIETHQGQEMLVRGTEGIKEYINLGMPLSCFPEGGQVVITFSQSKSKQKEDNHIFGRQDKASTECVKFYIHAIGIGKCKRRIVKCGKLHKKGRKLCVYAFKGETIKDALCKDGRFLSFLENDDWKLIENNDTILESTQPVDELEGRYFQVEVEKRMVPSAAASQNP

GST-FAM111A-strep [1] = biological target: T1, GST-FAM111A-strep (human, UniProt Q96PZ2 1-611); assay: as above; conditions: protein: recombinant, tags: N-terminal GST, C-terminal tandem Strep
T1 sequence (Q96PZ2 whole entry): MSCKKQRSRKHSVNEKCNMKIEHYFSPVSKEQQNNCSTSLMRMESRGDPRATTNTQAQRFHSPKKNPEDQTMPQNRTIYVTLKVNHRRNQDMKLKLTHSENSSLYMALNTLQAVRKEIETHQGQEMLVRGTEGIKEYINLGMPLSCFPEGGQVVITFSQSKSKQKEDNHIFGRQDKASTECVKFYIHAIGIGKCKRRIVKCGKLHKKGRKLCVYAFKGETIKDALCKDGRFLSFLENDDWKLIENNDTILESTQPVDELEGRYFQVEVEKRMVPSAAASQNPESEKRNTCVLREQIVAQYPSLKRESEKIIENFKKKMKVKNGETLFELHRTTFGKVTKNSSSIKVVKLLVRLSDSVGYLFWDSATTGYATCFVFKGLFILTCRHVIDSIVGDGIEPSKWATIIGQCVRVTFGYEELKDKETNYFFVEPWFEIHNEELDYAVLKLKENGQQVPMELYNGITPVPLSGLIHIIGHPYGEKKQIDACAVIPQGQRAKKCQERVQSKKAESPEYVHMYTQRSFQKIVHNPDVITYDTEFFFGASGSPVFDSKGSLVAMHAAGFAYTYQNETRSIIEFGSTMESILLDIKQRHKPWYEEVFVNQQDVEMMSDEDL

GST-FAM111A-strep [2] = biological target: T1, GST-FAM111A-strep; assay: EMSA; 5 mM Mg2+; up to 450 nM protein; EMSA: 25 mM Tris-HCl pH 7.5, 5 mM MgCl2, 10% glycerol, 20 ng/ul BSA, 1 mM DTT, 0.7 pmol DNA in 10 ul, on ice 1 h; FP: 10 mM HEPES-NaOH pH 7.5, 150 mM NaCl, 10 nM DNA; conditions: protein: recombinant; tags: N-terminal GST, C-terminal tandem Strep; label: 5' IRDye700 on strand 1; fork 1:2 1:3 2:4; both arms double-stranded

Sequence of Strep-FAM111A (Q96PZ2 whole entry): as above

CGACGATGCTCCGGTACTCCAGTGTAGGCAT (ssDNA) [6-FAM-O1676 (31 nt)]
Kd (Strep-FAM111A): ~60 nM

B1: ssDNA O3063 (75 nt) (ssDNA)
DNA: GTTTTCCCAGTCACGACGATGCTCCGGTACTCCAGTGTAGGCATATTACGAATTCTTGAGGCAGGCATGGTAGCT
binding result (MBP-FAM111A 176-282): binds
binding result (MBP-FAM111A 1-282): binds
binding result (GST-FAM111A-strep [1]; label: 5' IRDye700, single strand): binds

B2: dsY fork O3063/O4787/O3730/O3757 (dsDNA)
DNA 1: B1 DNA
DNA 2: AGCTACCATGCCTGCCTCAAGAATTCGTAATATGCCTACACTGGACCGTACTTCGCCTAGTAGACTGCCTTCCCG
DNA 3: GTACCGGAGCATCGTCGTGACTGGGAAAAC
DNA 4: CGGGAAGGCAGTCTACTAGGCGAAGTACGG
binding result (GST-FAM111A-strep [2]): no binding

B3: Y fork O3063/O4787 (mixed)
DNA 1: B1 DNA
DNA 2: B2 DNA 2
binding result (GST-FAM111A-strep [1]; label: 5' IRDye700 on strand 1, fork 1:2, 45 bp duplex, two 30-nt ss arms): binds
